Assays:
[1] = tested on: PU.1 in HSC of PU.1-GFP reporter mice; test: PU.1-GFP reporter activation in HSC after in vivo injection (FACS)
Protocol: CD45.1 and C57Bl/6 mice were obtained from Charles River. PU.1-GFP^31 M-CSFR^−/−27 and PU.1^fl/fl 32 mice have been described. Age- and sex-matched CD45.1 recipients that were reconstituted as described^3 with CD45.2 foetal liver from wt or M-CSFR^−/− embryos^27 and PU.1^fl/fl or PU.1^fl/fl::MxCre bone marrow, were used to isolate CD150+CD34− KSLF HSC not earlier than 8 weeks after reconstitution. For in vivo injections the 10 μg/mouse M-CSF, 5 mg/kg LPS (055:B5 E. coli) or sorted cells were injected in 100 μl of PBS into the retro-orbital sinus. For HSC transplantation 400 CD150+CD34− KSLF HSC were sorted from CD45.2 mice and mixed with 100.000 Lin^+ Sca^− CD45.1 carrier cells prior to injection into sub-lethally irradiated (4.5 Gy) CD45.1 recipient mice. For competitive transplantations, 1300 CD150+, CD34-KSLF HSC were isolated 16 h after control or 10 μg M-CSF injection from actin-GFP CD45.2 mice^33, mixed with equal numbers of CD45.2 competitor HSC and injected with 300.000 Lin^+ Sca^− RC-lysed CD45.1 carrier cells into sub-lethally irradiated (4.5 Gy) CD45.1 recipients. Contribution to platelets, CD19+ B-cells and CD11b+ myeloid cells was analysed after 4 and 6 weeks in the blood from mice with at least 5% GFP+ donor cells. For PU.1 deletion PU.1^fl/fl or PU.1^fl/fl::MxCre reconstituted mice were intra-peritoneally injected with 5 μg/g Polyinosinic:polycytidylic acid 7 and 9 days prior to control (PBS) or 10 μg M-CSF injection. All mouse experiments were performed under specific pathogen-free conditions in accordance with institutional guidelines.
For FACS sorting and analysis we used described staining protocols^3 and published stem and progenitor cell definitions^34, FACSCANTO™ BD™ LSRII and FACSARIA™ III equipment and DIVA™ software (BECTON-DICKINSON), analysing only populations with at least 200 events. For HSC analysis we used antibodies anti-CD34-FITC (clone RAM34, BD BIOSCIENCES), anti-CD135-PE (clone A2F10.1, BD BIOSCIENCES), anti-CD150-Pe-Cy7 (clone TC15-12F12.2, BIOLEGEND), anti-CD117-APC H7 (clone 2B8, BD BIOSCIENCES), anti-Sca-1-Pe-Cy5 (clone D7, BIOLEGEND), anti-CD48-APC (clone HM48-1, BIOLEGEND). Diverging from this or in addition we used antibodies anti-CD34 Alexa 700 (clone RAM34, BD BIOSCIENCES), anti-CD16/32 PE (clone 2.4G2, BD BIOSCIENCES), anti-CD11b PE-CF594 (clone M1/70, BD BIOSCIENCES), anti-CD19PE-Cy7 (clone 1D3, BD biosciences), anti CD45.2 APC (clone 104, BD BIOSCIENCES) and anti CD45.1 Pacific Blue (clone A20, BD BIOSCIENCES) for progenitor and blood cell analysis. LIVE/DEAD Fixable Violet Dead cell dye (Invitrogen) was used as viability marker.

single HSC = test: Single cell gene expression profiling of HSC (nanofluidic real time PCR); type: cell-based, mice; settings: 16 h culture in the presence of M-CSF
Protocol: CD150+CD34− KSLF HSC or CD150+CD34− CD48− KSLF HSC (single cells) were sorted into S-clone SF-03 medium (Sanko Jyunyaku) with 10% FBS supplemented with 100 U/ml penicillin and […] streptomycin (both Invitrogen) and cultivated in uncoated U-Shape 96 well plates (Greiner) in 100 μl SCM, 20 ng/ml rSCF, 50 ng/ml rTPO+/−100 ng/ml rM-CSF or 100 ng/ml rGM-CSF or 100 ng/ml rG-CSF. All cytokines were murine and from PeproTech. Cell viability was analyzed by AnnexinV and Propidium iodide FACS staining^35.
Single cells were sorted using the autoclone module on a FACSARIA™ III sorter (Becton-Dickinson) directly into 96 wells plate in the CELLS DIRECT™ Reaction Mix (Invitrogen). Individual cell lysis, cDNA synthesis and amplification was performed according to FLUIDIGM Advanced Development Protocol and single cell microfluidic real time PCR using Dynamic Array IFCs (BIOMARK™ FLUIDIGM) was performed by a trained technician of FLUIDIGM Inc. Preamplified products (22 cycles) were diluted 5-fold prior to analysis with Universal PCR Master Mix and inventoried TAQMAN® gene expression assays (ABI) in 96.96 DYNAMIC ARRAY™ on a BIOMARK™ system (FLUIDIGM). Ct values were calculated from the system's software (BIOMARK™ Real-time PCR Analysis; FLUIDIGM) and filtered according to a set of quality control rules outlined below.

[2] = tested on: endogenous PU.1 protein in single HSC; test: Intra-splenic injection of CFSE-labelled HSC, PU.1 immunofluorescence; type: in vivo, mice; settings: M-CSF receptor deficient HSC
Protocol: For analysis of HSC in vivo, 1500 to 7000 FACS sorted CD150^+ CD34^− KSLF HSC were stained 10 min at 37° C. with 3 μM CFSE (Invitrogen) in PBS/0.5% BSA, washed 3× in PBS/0.5% BSA and injected in 30 μl PBS (containing or not 1 μg of isotype control or AFS98 α-M-CSFR antibody^26 or 2 μM GW2580, 10 μM Ly29400, 10 μM PD98059 or 2 μM SU6656 inhibitors in 0.9% DMSO) into the spleen of anesthetized mice. After 24 h spleens were embedded in OCT (Tissue-Tek, Sakura) and frozen at −80° C. Cryostat sections (5 μm) were prepared from the entire organ, dried and fixed 10 min in 4% PFA/PBS at room temperature (RT) and every 10th section was further processed. After washes in PBS, slides were blocked for 1 hour at RT in PBS/2% BSA/1% Donkey serum/1% FCS/0.1% saponin, incubated for 36 h at 4° C. with anti-PU.1 polyclonal antibody (Santa Cruz) in PBS/0.05% saponin (1:50), washed and incubated with secondary Alexa 546-donkey-anti-rabbit antibody (Molecular probes) in PBS/0.05% saponin (1:500). All immunofluorescence samples were mounted with ProLong Gold DAPI antifade (Molecular probes) and analyzed by multifluorescent microscopy on a Zeiss Axioplan 2. All CFSE+ cells were analysed for PU.1 expression up to ≥30 or ≥50 cells as indicated. Cell counts and staining were verified by a second trained microscopist blinded to sample identity. […]

B1: M-CSF: recombinant murine macrophage colony stimulating factor from PeproTech, used in Example 1 (protein, UniProt P07141 33-552, looked up)
Macrophage colony-stimulating …: KEVSEHCSHMIGNGHLKVLQQLIDSQMETSCQIAFEFVDQEQLDDPVCYLKKAFFLVQDIIDETMRFKDNTPNANATERLQELSNNLNSCFTKDYEEQNKACVRTFHETPLQLLEKIKNFFNETKNLLEKDWNIFTKNCNNSFAKCSSRDVVTKPDCNCLYPKATPSSDPASASPHQPPAPSMAPLAGLAWDDSQRTEGSSLLPSELPLRIEDPGSAKQRPPRSTCQTLESTEQPNHGDRLTEDSQPHPSAGGPVPGVEDILESSLGTNWVLEEASGEASEGFLTQEAKFSPSTPVGGSIQAETDRPRALSASPFPKSTEDQKPVDITDRPLTEVNPMRPIGQTQNNTPEKTDGTSTLREDHQEPGSPHIATPNPQRVSNSATPVAQLLLPKSHSWGIVLPLGELEGKRSTRDRRSPAELEGGSASEGAARPVARFNSIPLTDTGHVEQHEGSSDPQIPESVFHLLVPGIILVLLTVGGLLFYKWKWRSHRDPQTLDSSVGRPEDSSLTQDEDRQVELPV
PU.1 activation in CD150hi HSC compared with total HSC ([1]; 16 h after injection): activated PU.1 to a similar extent | change in M-CSFR or MafB expression ([1]; HSC after M-CSF injection): no significant change | PU.1 activation in HSC ([1]; PU.1-GFP reporter mice, direct intravenous injection, after 16 h): significantly increased PU.1 activation | change in the proportion of CD150hi HSC ([1]; in GFP-positive or -negative HSC): no change | cells with a myeloid gene expression signature (single HSC): strong increase | number of PU.1+ cells (single HSC): doubling | PU.1 activation in M-CSFR-/- HSC, M-CSF stimulated versus control recipients [2]: no higher activation of PU.1

— patent US10709762B2, “Use of M-CSF for preventing or treating myeloid cytopenia and related complications” (priority 2013, dated 2020)
